Laboratory results taken from PMC9482095.
Like-named read-outs stand apart in the source and are kept apart here.

B1: dsDBE2 (dsDNA)
DNA 1: TAAGCTAGTCTTGTTTACATTTTGCTAGCAAT
DNA 2: ATTGCTAGCAAAATGTAAACAAGACTAGCTTA
B2: dsIRE (dsDNA)
DNA 1: TAAGCTAGTGGTTTGTTTTGCTTGCTAGCAAT
DNA 2: ATTGCTAGCAAGCAAAACAAACCACTAGCTTA

Assays:
FOXO1 FKH L183P [1] = target: T1, FOXO1 FKH L183P (UniProt Q12778 151-265, L183P); assay: EMSA
FOXO1 FKH L183P [2] = target: T1, FOXO1 FKH L183P; assay: EMSA; remark: listed apart in the source

T1 sequence (Q12778 151-265 L183P): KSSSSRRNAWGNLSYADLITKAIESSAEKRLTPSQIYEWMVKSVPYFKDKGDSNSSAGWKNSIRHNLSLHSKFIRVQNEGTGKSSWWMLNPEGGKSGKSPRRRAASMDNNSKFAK

Binder | Kd (FOXO1 FKH L183P [1]) [nM] | Kd (FOXO1 FKH L183P [2]) [nM]
B1 | 230 | –
B2 | – | 460 ± 100
